The record followed here is patent publication US20150203840A1 (ARGEN X N V, published 2015).

Test [1] concerns the target T1, recombinant human IL22R1 (human IL22R ECD) (human) (UniProt Q8N6P7).
T1 sequence (biotinylated in the ELISA of Table 4, looked up): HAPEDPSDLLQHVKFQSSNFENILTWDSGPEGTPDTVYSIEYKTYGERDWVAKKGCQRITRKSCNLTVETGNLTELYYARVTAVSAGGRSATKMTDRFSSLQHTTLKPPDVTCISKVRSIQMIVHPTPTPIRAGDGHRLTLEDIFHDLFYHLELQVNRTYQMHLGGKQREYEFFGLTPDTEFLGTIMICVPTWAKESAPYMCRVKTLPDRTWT
Briefly: Biacore, immobilized human IL22R ECD. (SPR reads the build-up and loss of mass on a sensor chip optically.)

Test [2] concerns the target T2, recombinant mouse IL22R1 (mouse IL22R ECD) (mouse) (UniProt Q80XZ4).
T2 sequence (biotinylated in the ELISA of Table 4, looked up): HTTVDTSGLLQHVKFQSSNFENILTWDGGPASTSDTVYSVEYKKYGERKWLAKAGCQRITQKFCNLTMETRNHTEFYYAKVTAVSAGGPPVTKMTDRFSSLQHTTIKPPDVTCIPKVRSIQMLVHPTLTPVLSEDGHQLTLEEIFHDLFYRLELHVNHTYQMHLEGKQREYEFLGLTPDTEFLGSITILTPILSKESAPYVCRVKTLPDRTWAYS
Briefly: Biacore, immobilized mouse IL22R ECD.

For test [3], the target named is cyno IL22R ECD (cyno). Briefly: ELISA, mAb coated at 100 ng/ml, biotinylated cyno IL22R ECD at 2 ng/ml, streptavidin-HRP. In general terms: ELISA stands for enzyme-linked immunosorbent assay.
In test [4] the target is T1, recombinant human IL22R1 (human IL22R ECD) (human). Briefly: ELISA, mAb coated at 100 ng/ml, biotinylated human IL22R ECD at 2 ng/ml, streptavidin-HRP.
In test [5] the target is T2, recombinant mouse IL22R1 (mouse IL22R ECD) (mouse). Briefly: ELISA, mAb coated at 100 ng/ml, biotinylated mouse IL22R ECD at 2 ng/ml, streptavidin-HRP.
Test [6] concerns the target cyno IL22R ECD (cyno). Nature of the test: ELISA, mAb coated at 100 ng/ml, biotinylated cyno IL22R ECD at 100 ng/ml, streptavidin-HRP.
In test [7] the target is T3, rhesus IL22R ECD (rhesus) (UniProt G7MHN4).
T3 sequence (chain, biotinylated): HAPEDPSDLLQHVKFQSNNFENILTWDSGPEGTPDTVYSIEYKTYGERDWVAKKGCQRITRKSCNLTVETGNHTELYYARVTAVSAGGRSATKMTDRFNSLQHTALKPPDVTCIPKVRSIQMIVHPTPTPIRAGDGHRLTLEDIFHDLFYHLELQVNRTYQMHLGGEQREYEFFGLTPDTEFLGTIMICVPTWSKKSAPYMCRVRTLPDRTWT
Nature of the test: ELISA, mAb coated at 100 ng/ml, biotinylated rhesus IL22R ECD at 2 ng/ml, streptavidin-HRP.

The target in test [8] is T1, recombinant human IL22R1 (human IL22R ECD) (human). Briefly: ELISA, mAb coated at 100 ng/ml, biotinylated human IL22R ECD at 100 ng/ml, streptavidin-HRP.
Test [9] has as its target T2, recombinant mouse IL22R1 (mouse IL22R ECD) (mouse). Nature of the test: ELISA, mAb coated at 100 ng/ml, biotinylated mouse IL22R ECD at 100 ng/ml, streptavidin-HRP.
Test [10] concerns the target T3, rhesus IL22R ECD (rhesus). Nature of the test: ELISA, mAb coated at 100 ng/ml, biotinylated rhesus IL22R ECD at 100 ng/ml, streptavidin-HRP.

As a reminder, the Kd is the constant that tells how readily two partners part at equilibrium. The koff is the rate constant with which the complex falls apart. Usually kon stands for the second-order rate constant of association.

B1: 205A5 (antibody, part only; not given: parental light chain variable domain, V domains shown, part only)
VH: QVQLVESGGGLVQPGGSLRLSCAASGFTFNSYEMYWVRQAPGKGLEWVSGITADGGYTYYADSVKGRFTMSRDNAKNTLYLQMNSLKPEDTALYYCANLWNDYWGQGTQVIVSS
Take B1: the Kd stood at 0.0019 nM in [1] and 0.007 nM in test [2]. The koff is 3.1e-07 s⁻¹ in test [1] and 1e-06 s⁻¹ in test [2]. Besides, the values for the kon in test [1] and in test [2] were 160000 M⁻¹ s⁻¹ and 150000 M⁻¹ s⁻¹, respectively. Further, the Absorption at 620 nm (relative absorption units) in the test with cyno IL22R ECD (cyno) [3] is 1.36; in test [4], 1; in test [5], 0.172; in the test with cyno IL22R ECD (cyno) [6] it was 2.66; in test [7] it was 1.17; in test [8], 2.93. Besides, the Absorption at 620 nm (relative absorption units) in test [9] was 2.36; in test [10], 2.77.

B2: 205A9 (antibody, part only; not given: parental heavy chain variable domain, V domains shown, part only)
VL: HSAVTQPSAVSVSLGQTARITCQGGNFGSYYASWYQQKPGQAPVLVIYDDDRRPSGIPERFSGSSSGGRSTLTISGAQSGDEGDYYCQSADLSGNPVFGGGTHLTVL
Consider B2, for which the Kd in test [1] worked out at 0.42 nM; in test [2] it was 1.8 nM. In addition, the off-rate constant (koff) came to 0.00028 s⁻¹ in test [1] and 0.00048 s⁻¹ in test [2]. For the same molecule, the kon was 670000 M⁻¹ s⁻¹ in [1] and 260000 M⁻¹ s⁻¹ in test [2]. Also, the Absorption at 620 nm (relative absorption units) in [4] is 1.03; in test [5], 1.86; with cyno IL22R ECD (cyno) [6], 2.18; in [7], 1.97; in [8], 2.57; in [9], 2.36. Also, in test [10], the Absorption at 620 nm (relative absorption units) stood at 2.59.
